From patent publication US20030055219A1 (MYRIAD GENETICS, published 2003)

What was measured:
[1] = molecular target: T1, C-NAP1 amino acids 1000-1300 (two-hybrid bait, fused to the Gal4 DNA binding domain) (yeast, UniProt P04386 1-147; Q9BV73 1000-1300); assay: yeast two-hybrid, C-NAP1 fragment as Gal4 DBD bait, human brain library prey
T1 construct: range 1-147;range 1000-1300; Bait was expressed in yeast as a C-terminal fusion to Gal4 DBD 1-147 from vector pGBTQ
Excerpt: (§1) In these yeast cells, the bait is produced as a C-terminal fusion protein with the DNA binding domain of the transcription factor Gal4 (amino acids 1 to 147). A total human brain (person) cDNA library cloned into the yeast expression vector pACT2 was purchased from Clontech (human brain […] cDNA, cat. #HL4004AH), transformed into the yeast strain J692 (genotype of this strain: Mat α, ade2, his3, leu2, trp1, URA3::GAL1-lacZ LYS2::GAL1-HIS3 gal4del ga18Odel cyhR2), and selected for the ability to drive leucine synthesis. In these yeast cells, each cDNA is expressed as a fusion protein with the transcription activation domain of the transcription factor Gal4 (amino acids 768 to 881) and a 9 amino acid hemagglutinin epitope tag. J693 cells (Mat a type) expressing the bait were then mated with J692 cells (Mat a type) expressing proteins from the brain library. The resulting diploid yeast cells expressing proteins interacting with the bait protein were selected for the ability to synthesize tryptophan, leucine, histidine, and β-galactosidase. DNA was prepared from each clone, transformed by electroporation into E. coli strain KC8 (Clontech KC8 electrocompetent cells, cat. #C2023-1), and the cells were selected on ampicillin-containing plates in the absence of either tryptophane (selection for the bait plasmid) or leucine (selection for the brain library plasmid). […]

[2] = molecular target: T1, C-NAP1 amino acids 1000-1300 …; assay: yeast two-hybrid, bait C-NAP1 AA 1000-1300, prey AA 7-283
Excerpt: as §1, with “A” for “In these yeast cells, the bait is produced as a C-terminal fusion protein with the DNA binding domain of the transcription factor Gal4 (amino acids 1 to 147). A”, “plasmid). DNA for both plasmids was prepared and sequenced by di-deoxynucleotide chain termination method.” for “plasmid).”

[3] = molecular target: T2, C-NAP1 amino acids 250-550 (two-hybrid bait, fused to the Gal4 DNA binding domain) (yeast, UniProt P04386 1-147; Q9BV73 250-550); assay: yeast two-hybrid, bait C-NAP1 AA 250-550, prey AA 1314-1575
T2 construct: range 1-147;range 250-550; Bait was expressed in yeast as a C-terminal fusion to Gal4 DBD 1-147 from vector pGBTQ
Excerpt: as §1, with “A” for “In these yeast cells, the bait is produced as a C-terminal fusion protein with the DNA binding domain of the transcription factor Gal4 (amino acids 1 to 147). A”, “plasmid). DNA for both plasmids was prepared and sequenced by di-deoxynucleotide chain termination method.” for “plasmid).”

[4] = molecular target: T1, C-NAP1 amino acids 1000-1300 …; assay: yeast two-hybrid, bait C-NAP1 AA 1000-1300, prey AA 184-246
Excerpt: as §1, with “A” for “In these yeast cells, the bait is produced as a C-terminal fusion protein with the DNA binding domain of the transcription factor Gal4 (amino acids 1 to 147). A”, “plasmid). DNA for both plasmids was prepared and sequenced by di-deoxynucleotide chain termination method.” for “plasmid).”

[5] = molecular target: T3, C-NAP1 amino acids 1-300 (two-hybrid bait, fused to the Gal4 DNA binding domain) (yeast, UniProt P04386 1-147; Q9BV73 1-300); assay: yeast two-hybrid, bait C-NAP1 AA 1-300, prey AA 2-76
T3 construct: range 1-147;range 1-300; Bait cDNA was made by PCR from brain cDNA; It was expressed in yeast as a C-terminal fusion to Gal4 DBD 1-147 from vector pGBTQ
Excerpt: as §1, with “A” for “In these yeast cells, the bait is produced as a C-terminal fusion protein with the DNA binding domain of the transcription factor Gal4 (amino acids 1 to 147). A”, “plasmid). DNA for both plasmids was prepared and sequenced by di-deoxynucleotide chain termination method.” for “plasmid).”

B1: FIP-2 amino acids 302-577 (two-hybrid prey clone, fused to the Gal4 activation domain) (other, yeast;human, UniProt P04386 768-881, looked up, not shown: small tags and cut ends)
chain: ANFNQSGNIADSSLSFTFTNSSNGPNLITTQTNSQALSQPIASSNVHDNFMNNEITASKIDDGNNSKPLSPGWTDQTAYNAFGITTGMFNTTTMDDVYNYLFDDEDTPPNPKKELNLQVTSLFKELQEAHTKLSEAELMKKRLQEKCQALERKNSAIPSELNEKQELVYTNKKLELQVESMLSEIKMEQAKTEDEKSKLTVLQMTHNKLLQEHNNALKTIEELTRKESEKVDRAVLKELSEKLELAEKALASKQLQMDEMKQTIAKQEEDLETMTILRAQMEVYCSDFHAERAAREKIHEEKEQLALQLAVLLKENDAFEDGGRQSLMEMQSRHGARTSDSDQQAYLVQRGAEDRDWRQQRNIPIHSCPKCGEVLPDIDTLQIHVMDCII
notes: Prey came from the Clontech human brain library in pACT2; The clone 'included' these residues
Question: Does B1 bind [1]?
Answer: Result: binds

B2: KIAA0174 amino acids 7-283 (two-hybrid prey clone, fused to the Gal4 activation domain) (other, yeast;human, UniProt P04386 768-881, looked up, not shown: small tags and cut ends)
chain: ANFNQSGNIADSSLSFTFTNSSNGPNLITTQTNSQALSQPIASSNVHDNFMNNEITASKIDDGNNSKPLSPGWTDQTAYNAFGITTGMFNTTTMDDVYNYLFDDEDTPPNPKKEKAERLRVNLRLVINRLKLLEKKKTELAQKARKEIADYLAAGKDERARIRVEHIIREDYLVEAMEILELYCDLLLARFGLIQSMKELDSGLAESVSTLIWAAPRLQSEVAELKIVADQLCAKYSKEYGKLCRTNQIGTVNDRLMHKLSVEAPPKILVERYLIEIAKNYNVPYEPDSVVMAEAPPGVETDLIDVGFTDDVKKGGPGRGGSGGFTAPVGGPDGTVPMPMPMPMPSANTPFSYPLPKGPSDFNGLPMGTYQAFPNIHPPQIPATPPSYESV
notes: range 768-881;range 7-283
Question: Does B2 bind [2]?
Answer: Result: binds

B3: IQGAP2 amino acids 1314-1575 (two-hybrid prey clone, fused to the Gal4 activation domain) (other, yeast;human, UniProt P04386 768-881, looked up, not shown: small tags and cut ends)
chain: ANFNQSGNIADSSLSFTFTNSSNGPNLITTQTNSQALSQPIASSNVHDNFMNNEITASKIDDGNNSKPLSPGWTDQTAYNAFGITTGMFNTTTMDDVYNYLFDDEDTPPNPKKEQPGNTLTEILETPATAQQEVDHATDMVSRAMIDSRTPEEMKHSQSMIEDAQLPLEQKKRKIQRNLRTLEQTGHVSSENKYQDILNEIAKDIRNQRIYRKLRKAELAKLQQTLNALNKKAAFYEEQINYYDTYIKTCLDNLKRKNTRRSIKLDGKGEPKGAKRAKPVKYTAAKLHEKGVLLDIDDLQTNQFKNVTFDIIATEDVGIFDVRSKFLGVEMEKVQLNIQDLLQMQYEGVAVMKMFDKVKVNVNLLIYLLNKKFYGK
Question: Does B3 bind [3]?
Answer: Result: binds

B4: BAP31 amino acids 184-246 (two-hybrid prey clone, fused to the Gal4 activation domain) (other, yeast;human, UniProt P04386 768-881, looked up, not shown: small tags and cut ends)
chain: ANFNQSGNIADSSLSFTFTNSSNGPNLITTQTNSQALSQPIASSNVHDNFMNNEITASKIDDGNNSKPLSPGWTDQTAYNAFGITTGMFNTTTMDDVYNYLFDDEDTPPNPKKELKADLQKLKDELASTKQKLEKAENQVLAMRKQSEGLTKEYDRLLEEHAKLQAAVDGPMDKKEE
notes: range 768-881;range 184-246; The printed GenBank number 'U5211' looks truncated
Question: Does B4 bind [4]?
Answer: Result: binds

B5: HSBP1 amino acids 2-76 (two-hybrid prey clone, fused to the Gal4 activation domain) (other, yeast;human, UniProt P04386 768-881, looked up, not shown: small tags and cut ends)
chain: ANFNQSGNIADSSLSFTFTNSSNGPNLITTQTNSQALSQPIASSNVHDNFMNNEITASKIDDGNNSKPLSPGWTDQTAYNAFGITTGMFNTTTMDDVYNYLFDDEDTPPNPKKEAETDPKTVQDLTSVVQTLLQQMQDKFQTMSDQIIGRIDDMSSRIDDLEKNIADLMTQAGVEELESENKIPATQKS
notes: range 768-881;range 2-76
Question: Does B5 bind [5]?
Answer: Result: binds
